PMC3623634 (Molecular Biology of the Cell, 2013)

Legend:
[1] = target: T1, GST-Alp7 (full-length Alp7/TACC fused to GST) (fission yeast, UniProt Q9URY2 1-474); assay: peptide or protein array
T1 sequence (looked up): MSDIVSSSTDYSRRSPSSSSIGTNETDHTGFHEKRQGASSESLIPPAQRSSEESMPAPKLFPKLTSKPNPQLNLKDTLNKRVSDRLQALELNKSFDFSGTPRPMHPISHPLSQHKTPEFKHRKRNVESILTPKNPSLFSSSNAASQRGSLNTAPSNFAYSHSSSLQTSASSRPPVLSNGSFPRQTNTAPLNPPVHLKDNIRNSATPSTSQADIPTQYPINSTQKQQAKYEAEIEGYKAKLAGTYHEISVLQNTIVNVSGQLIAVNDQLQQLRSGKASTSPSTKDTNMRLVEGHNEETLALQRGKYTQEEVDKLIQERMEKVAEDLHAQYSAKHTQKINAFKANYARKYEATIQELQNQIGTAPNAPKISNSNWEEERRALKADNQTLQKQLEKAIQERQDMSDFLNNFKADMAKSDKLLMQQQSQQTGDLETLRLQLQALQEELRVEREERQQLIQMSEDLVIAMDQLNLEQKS

[2] = target: T2, GST-Alp7C (C-terminal half of Alp7, TACC domain, residues 219-474) (fission yeast, UniProt Q9URY2 219-474); assay: peptide or protein array
T2 sequence (looked up): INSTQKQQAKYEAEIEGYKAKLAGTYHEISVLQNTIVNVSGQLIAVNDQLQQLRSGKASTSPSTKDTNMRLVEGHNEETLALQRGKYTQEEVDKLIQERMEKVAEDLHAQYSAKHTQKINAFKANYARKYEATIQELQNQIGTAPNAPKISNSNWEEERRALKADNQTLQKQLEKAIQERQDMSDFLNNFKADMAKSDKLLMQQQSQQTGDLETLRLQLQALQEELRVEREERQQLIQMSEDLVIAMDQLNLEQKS

| Binder | binding result [1] | binding result [2] |
| --- | --- | --- |
| DSLEKKVQKLNSLA (peptide, UniProt Q10198 411-424, looked up) [Ndc80 loop peptide (411-424) with F420 replaced by leucine] | binds | binds |
| DSLEKKVQKINSLA (peptide, UniProt Q10198 411-424, looked up) [Ndc80 loop peptide (411-424) with F420 replaced by isoleucine] | binds | binds |
